Test results taken from the DeepSol protein solubility set.

assay: soluble on expression in E. coli; label from the status in PepcDB or PDB records

| Sequence | soluble on expression in E. coli |
| --- | --- |
| MAGKITVVGLGAGDMDQLTIGIHKLLTKADTLYVRTKDHPLIEELEKETKNIRFFDDIYEKHDQFEAVYEEIADILFEAARREDVVYAVPGHPFVAEKTVQLLTERQEKENVQVKVAGGQSFLDATFNVLQIDPIEGFQFVDAGTLSADELELRHHLIICQVYDQMTASEVKLTLMEKLPDDYEVVIVTAAGSRGEEIRTVPLFELDRNVALNNLTSVYIPPIKEEKLLYHEFSTFRSIIRELRGPNGCPWDKKQTHQSLKQYMIEECYELLEAIDEEDTDHMIEELGDVLLQVLLHAQIGEDEGYFTIDDVIKGISEKMVRRHPHVFKDVKVQDENDVLANWEDIKKAEKNTSESSLLDSVPKTLPALSKAAKLQKKAAKVGFDWEDVSDIWEKVSEEMKEFSSEVSEAPHEHNLKAEFGDILFALVNVARFYKIEPEEALTMTNDKFRRRFSYIEETAKEEGVELADMSLEDMDKLWNEAKETERRS | soluble |
| MAGNHTNRPGLRKTNKKGATKGSGAVRRRGLKGKGPTPKAEDREYHAAYKKKMERKRRDQGRHVKEETSELVVGRNPVVECLHAKVPATT | not soluble |
| MAGQADNRAPYAKIAAHYTELITSGQLQPGSLLPSIKNLAEEWNVSTATAEKALRKLRNEGLVRGIHGIGTEVLDQPAPMSSGAQRQDRGRRTGSSWGAGERSDSHKAAVVPAPAEVAHALDIEPGSDVIRRSRVYRDRHGIVAHSTSWIPARFGRLIPQLAASERLTGGTSLQLIAQVTGHPITHRVDSASARLLTPEYTRLLELDPENPPAEPVVVMTAKFVDSEGTVVEYGVDLGGPGRTWRTESEVTQ | soluble |
| MAGRAAVPEVIWSRPERTGRGPRPAYTRADIAAAAVRIADADGLDAVSMRRVAGELGCGTMSLYNYVPRKEDLYELMMDAVSGEHELWEPSGDWRADMIRVAHQTRALMHRHTWLPRLMSPVYGFSPNALRYLEHCLACLDPFEAPYGTKMELVAMVNGVVTTYVANEIATVERTRSLPWSEEQENAARIAYLGRQVASGAYPRLAASFAEDAGPIDLEGVFERALARVLDGFA | not soluble |
| MAGSSEEAPDYGRGVVIMDDWPGYDLNLFTYPQHYYGDLEYVLIPHGIIVDRIERLAKDIMKDIGYSDIMVLCVLKGGYKFCADLVEHLKNISRNSDRFVSMKVDFIRLKSYRNDQSMGEMQIIGGDDLSTLAGKNVLIVEDVVGTGRTMKALLSNIEKYKPNMIKVASLLVKRTSRSDGFRPDYAGFEIPNLFVVGYALDYNEYFRDLNHICVINEHGKEKYRV | soluble |
| MAGVTKEQIAKAKEWDLLSYLQAYEPQELKKSGPREYCTRTHDSLKISNGKWCWNSRGIGGRTALDYLIKVRGMDFVGAVETLCGYCAPPPEKAPPIKEKQPKPFRLPQASRCASAVVGYLQDRGIDPELLGVCMEAGILYESCKYQNCVFVGRDTAGNARAASLRGTRDGFRMDVEGSDKRYSFCLPAGKADCPRLAVAESPIDALSLATLVKLSGGEPRDSHYLSLGGTGPRALIQFLHDHPHVTQVSLCLDNDKAGLEGMERLTQEIQNDAELSRRVKLVYPNPPKQGKDYNEFLCTHVKAVRTAQRQRDAAR | not soluble |
| MAHDVEVKNAVRGAYVFDRLSLEMAAEKAGVSFGTARRWKANAESNGDNWDKARDVHVMASGGIENIAQGLLTGFLIKYRKLMSELEENTEMATAAKVEALSALADSFAKMTASSKKLLPETSAMATAMRAIEMMANIVKSKKPHLLPDFLEMLDDLEVQFKKEFK | not soluble |
| MAHHHHHHGPNTNPVAAWKALKEGNERFVAGRPQHPSQSVDHRAGLAAGQKPTAVIFGCADSRVAAEIIFDQGLGDMFVVRTAGHVIDSAVLGSIEYAVTVLNVPLIVVLGHDSCGAVNAALAAINDGTLPGGYVRDVVERVAPSVLLGRRDGLSRVDEFEQRHVHETVAILMARSSAISERIAGGSLAIVGVTYQLDDGRAVLRDHIGNIGEEV | soluble |
| MAHHHHHHMALKLCKRFLRSNTKKPIFSKARDNLKERFDDDNYSFLEDNSFDSPLKASDEFPSYMQPSDKNSSWSEEWRDENLKLREKENRYNLRVSDNYAYSVPYNYKIVIPHKGKNIKDEKDKRKKLLNDEKYIKEEYSRDVSNTLNYSDFCGFRNPTLSTFENYRYWQDSGFKKFMNRIFPIKIPEHRKIDPLLREYIYFLHSFDPYRFTFKRLSERYLFPENVIRSIYKEESVKRFLEDYHLCDDKTKRISKKEAVLKIKELIYSKKIGYKDIGDYENIKNEQDEFCGHKNTFDQINRQIIQVESISAFPLADRRNPVPKRVDIDMTVCNTSNIKIMNWINPNDKVIF | soluble |
| MAHHHHHHMALSSSGSAALGDRIARAAAAAPQWTAQQRCFRQLLKSLRGAYFHDRSKLFWARHRILVEFYKYSRVEEERDVLLLVGIGNEIATFVAEYMKVDVGAIMEHNKKIQSLPVAKAKRYREEYLLHEKQHESWCKQKIRLMMDRRPPPPYPFS | not soluble |
| MAHHHHHHMALTTDYSKLGELIHQSPESPSLYNQAKYHTQKQNDSFYEIKRFMCLGSTIPDDAQYSVDLLIDRGDKKCRDVLAESFRVEGYKYATTNNDDNVRFAKLFFDHYANMFYCMHLHGDDRKCNSLFRHFYEAVGKQTR | not soluble |
| MAHHHHHHMANSKFSYVKLFEEERKILLNCYFIVRIDGCDFKHFVKAHNYNKPNDIKGLNLMNECALDILKKFDDIDLCYGHSDEYSFLFNKSTKLWNRRYDKILTNVVSYFTSCFLYKWKNYFQKEMLYAPSFDARIVVYPNEKEIKDYFSWRQVDCHINTQYNECFWNLIRQANYTNDEAHKFLLTTQTKDKNELLFSRFNINYNNLPEIFRRGTIIIRNKTFQKKNEALGTIYNNDTANNIDDNNNNNNNNNNTFNDNNDIENFEKLKKECLPKFIISHENLVSEKFWDKYDYIFKKKKDLEKK | not soluble |
| MAHHHHHHMAQEISNLVKKYNVTWQQTMLRIYDPKETVEFYEKNFGMINIHTYHFNEYNFSLYFLITPPYDEEERKKLPEPNTKESEKYLWNLNTVCLELTYNHNSQEKLSNGNNENDRGFGHIAFNCNDVIEQCDNLFKKNVKFHKLPHETKMKTIGFALDPNNYWIEIVKRSNQVKWKNYKNITNFSQTMIRVKNPEKSLYFYIHILGMKLIHVKHCSDFSLYFLKSNYACAENNKEMIEDQSNKNTNEIYDFNSLKNSYQTDEDYENFKQSWEPVLELTHNHGTEDDDNFSYHNGNTEPRGFGHIGFLVNDLENYCKELETLNVTFKKKVTEGLMKNIAFIYDPDNYVIELIQRDTSFIAK | soluble |
| MAHHHHHHMARHSSTPLSSSVCVRRKTMSSCRTSSFTHTSSRTLARVQRRFSRETTAPRAVLVTLQDARTNPRNAVRRLDDIHIPSLNQRLSSRLQNSSSQSNRDAIRSPSDANCTAQPNSDNANLATAVLSTKTSATQDAKFLLMPSISVSARAPDTAMADASCNTAPSASS | not soluble |
| MAHHHHHHMASTDEVVLSENRALRVECEAQEVEIAQLKNYLHMSVTKPDLCFGQQRVTLNKCLNSFPEKAWQKLIDETPEVDSPAIITALEDQLADKNKHLTACLQEISNLRSRSGDGKTKPDSITDGNTAHLLSQITFLHNEVERLEQQVNAVRAAGKEELRVMTIEYNDKLQLREKENRLLTEQLRGRKNHLADGEDMAARTKTLESQLATAGIRKKFFTHREKQFPGKNPKIRGCY | not soluble |
| MAHHHHHHMCACTYSYPRAAHGHDGTTSQLFTRKRIFTLPQLHRSYFLKLLFVQKPLSNPLLAVSLHLTFHQHHSLLGPSVACRAHKHMINYYAKCRARNHTEGEGRCLAFRGMY | not soluble |
| MAHHHHHHMCAKLRDSANISSLRKERDCWQREVARVSDAVRVLCGGANICSNVESPTEWAESLCEAVQDGQAALVCLSLELWTGGTWAGIQGFKEQLTAYVGACASAAKEAAERVEALEVEVLRLKESEASLSARCENTEAHARNVEEDLKRASTQAERVSELEQETSDLRTRCNLLRKELQRQREAMQRDRPQPHETANSETAASPITENASAVQSVLLAAAGCVSERDVATFVGSRGSQDGSLKLSKVGAELLIKENAELKRENAHNNGVIAQYIRELEGYKANERVQLSIEYLRNIVQQYLCAAEDLRPKMIPAICTVLEFSSKQKEDVQTANPRCPRFH | soluble |
| MAHHHHHHMDCQALAKSLEQMNHLHNVKYLEAKDLTDFNQKSAYYICHQIAEKQLSKEGGHVVIGLSGGKTPIDVYKNIALVKDIKIDTSKLIFFIIDERYKRDDHKFSNYNNIKFLFESLKINEKEQLYRPDTSKNIVECVRDYNEKIKNMVKKYTKVDIAILGMGSDFHIASLFPNIFFNIYMNNYQNSYIYDESSIKVANSNDTSDNDNLDLLKEYVYFTTTNNFDVRKRITVSLDLLGNASSKIFLLNSTDKLDLWKNMLLKSYVDVNYCLYPAVYLIDSMNTTVVTCGYTNYPQMLEDIYVSNSSLS | soluble |
| MAHHHHHHMDDGTRIPEDVEVFLRAARAKDTFKCAELLKETPSLINSVEAGGFSALHFAAFNGDLEMIRILLEFKPNLELRNYDNNTPLIMAAKGHQNSAIKLLVDAGAEVNLRTPTGGTAAHFAASMGYVDTVRCLVELGADVMHEDSETGTLLHWAAHSGDINCIGEMIYGFKIPINVKDAHGGTALFTALFMKKFEAVEFLLEHGADPRVMIEGDKSTPLHIAVEHANTECVKLLLVFGADPHVANTSGETPTSLAEKAKNNSALRELMKPMLSEEKRKEEAARFKTQGNKVFEGGENVKAAKFYTLAIHLDSTNHVFFSNRAAAYFNQRYYNGAYWDSLRCISLAPDWPKGYFRKAATELAMKKADEALQTCERGLRLDPKNKDLLTIKEEARRQRNK | soluble |
| MAHHHHHHMDIGELPDDQFPGAQYIPDLHGLGRERQALSCKVHEMKIPGQVSPYHVPEGEESSERETLYDENGLPIRTNSNDQEGDKKLWSWTDDGKLKLLCSQPIIPVSVVQGILRRDKIILIPQVEVTDFVVPKIYNQNIKHDVPKLDIKVECSNVEIPNVKYVEKEIIIPIITGYTHKFIPKWDVHEVPRPVVKYIGEQKIVEVEVPEIKYIDKIVEREVVVDTVEKRVPKIIEIPKYVDEVKYVWKPIEKIVYIQKLVPKFDVNLECPPPLIVPYPVQTVKQIPPVMVRKDVKFPDCDYTDFNSPYGSLPIPREYVDYYTSRQKAQKGIFSNCCESNCKNGEDHHGGETYYDVSPSSAMGVSEESLQNELNICNSSNPFVNTSADSILNKGGPRQALDAACM | not soluble |
| MAHHHHHHMDPGAVMPGIVQMSKDNFDQLVGKEKAVLVEFYAPWCGHCKSMAPEYAALGAAYEASTNAKDLLLVGKVDATQDSDLGKRFGVTGFPTILYFAPGSLEPEKYKGGRTAEDFAKYLSSAIAGLRLTIPIEPQFAMELVHTNFDAVVKDPSKAVLVMFYAPWCGHCKALKPIYNTLAKVFSNDKDVVIARINADDAANRKIATEYAVAGFPTVYFFPKGADEKPVEYKNGRNLEDFLTFVNENAGKHRLANGDFSWECGVIAELAEAVALVATSSGESSKAAVEAVKAAAAKLAESEDAAYYIKAAERIAAKGPAYVESESARLKRTLGGSVAGDRRDNMVRRLNILTSIQKHMK | not soluble |
